Assay [1] has as its target T1, full-length CD9 expressed on cells (human, UniProt P21926 2-228).
T1 construct: also called human CD9
T1 sequence: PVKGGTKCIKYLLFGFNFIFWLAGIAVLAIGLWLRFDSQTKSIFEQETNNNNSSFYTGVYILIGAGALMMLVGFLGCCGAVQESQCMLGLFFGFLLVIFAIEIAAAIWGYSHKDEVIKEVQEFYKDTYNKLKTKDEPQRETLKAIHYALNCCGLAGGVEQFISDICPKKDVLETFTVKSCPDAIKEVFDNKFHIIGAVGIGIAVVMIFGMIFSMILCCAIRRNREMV
The assay is described as follows: selection by binding to cells expressing full-length CD9; method not described.

For assay [2], the target named is T2, recombinant human CD9 long extracellular loop 2-human Fc fusion protein (10015-CD, R&D Systems) (human, UniProt P21926 112-195).
T2 construct: Bought protein; The parts are ordered as in the printed name; also called CD9-loop2; long extracellular loop 2 peptide; not shown: human Fc of the bought fusion protein
T2 sequence: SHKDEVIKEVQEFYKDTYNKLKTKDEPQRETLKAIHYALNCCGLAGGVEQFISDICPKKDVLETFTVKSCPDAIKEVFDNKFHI
The assay is described as follows: biolayer interferometry (Octet RED384), CD9 loop 2-Fc on AHC biosensors, Fab-Y 10 ug/mL. The procedure: Seven different CD9 antibodies each providing unique functional activity with CD137, CD7 and HVEM antibodies in a bispecific combination were analysed for their ability to bind the long extracellular loop 2 of CD9. CD9 contains two extracellular loops: a short extracellular loop (loop 1: 34-55 in SEQ ID NO:1) and a long extracellular loop (loop 2: 112-195 in SEQ ID NO:1). We used biolayer interferometry to assess binding of our panel of CD9 Fab-Y antibodies (selected for ability to bind full-length CD9 expressed on cells) to the long extracellular loop 2 peptide, using the Octet® RED384 System (FortéBio) with anti-hIgG Fc Capture (AHC) Biosensors (FortéBio) at room temperature. Firstly, an array of 8 sensors was dipped in kinetics buffer (PBS 0.1%, BSA 0.02%, Tween 20) for 120 seconds to provide a baseline signal. Sensors were then moved to wells containing 200 μl of recombinant human CD9 long extracellular loop 2-human Fc fusion protein (10015-CD, R&D Systems®) at 2 μg/mL in kinetics buffer to immobilize the protein to the biosensor (100 seconds), followed by a second baseline step (180 seconds) in kinetics buffer to equilibrate the biosensors now coated with the CD9 long extracellular loop 2-human Fc fusion protein. No detachment of the peptide was observed during this step. […]
A general note: Biolayer interferometry detects binding as a change in optical thickness at a sensor tip.

B1: anti-CD9 Fab-Y antibody 7272 (Fab, V domains shown)
VH: QSLEESGGRLVTPGTPLTLTCTVSGFSLSSYAMGWVRQAPGKGLEWIGAIGSITATGYARWAKGRFSISKTSTTVDLKMTSPTTEDTATYFCAREIYVGSAYAFDIWGPGTLVTVSS
VL: AYDMTQTPASVEVAVGDTVTIKCQASQSISNYLAWYQQKPGQPPKLLIYLASTLASGVPSRFKGSGSGTEFTLTISDLECADAATYYCQQGYIDNVNKGFGGGTEVVVK
notes: Tested as Fab-Y: Fab fragment joined through a peptide linker at CH1 to the GCN4 peptide (clone 7P14P); also called VR7272
For the molecule B1, the binding result in assay [1] and in assay [2] was “binds” throughout.

The values are drawn from patent US20230151109A1 (UCB, published 2023).
